This data set is described as follows: yeast display, Sf9 membrane polyspecificity reagent, FACS + sequencing; frameworks hold sequencing errors. The method in brief:
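Nanobodies came from a synthetic yeast display library in Saccharomyces cerevisiae BJ5465, induced with galactose for 36–48 hours and stained for 1 hour at 4 °C with 10% biotinylated, detergent-solubilized Sf9 membrane reagent. Cells were enriched on streptavidin microbeads and then FACS-sorted, with low and high (top ~1%) gates set on anti-HA fluorescence for expression and streptavidin fluorescence for reagent binding. Each polyreactivity label reflects the gate a clone came from. Genes were amplified by colony PCR, sequenced by MiSeq 2 × 250 and filtered by CDR length.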
With “QVQLVESGGGLVQAGGSLRLSCAASGSTFYGYTMGWSRQAPGKERELVAVITSGGSTYYADSVKGRFTISRDNAKNTVYLQMNSLKPDDTAVYYCAQRYGYPAYGRPWRIGRTYDYWGQGTQVTVSS”, the “polyreactivity (PSR sort gate)” value is “low polyreactivity”.
To “QVQLVESGGGLVQAGGSLRLSCAASGRTLGSNTMGWYRQAPGKERELVASISLSGGSTSYADSVKGRFTISRDNAKNTVYLQMNSLKPEDTAVYYCNAKYHRRLQWGTRYYYWGQGTQVTVSS” belongs “high polyreactivity”.
“QVQLVESGGGLVQAGGSLRLSCAASGFTFVYNAMGWYRQAPGKERELVAAITFSGGSTYYADSVNGRFTISRDNAKNTVYLQMNSLKPEDTAVYYCATDYPGVFVLRRSHPYDYWGQGTQVTVSS”: the “polyreactivity (PSR sort gate)” value is on record as “low polyreactivity”.
To “QVQLVESGGGLVQAGRSLRLSCAASGFIFRWYAMGWYRQAPGKERELVAGLTSGDNTYYADSVKGRFTISRDNAKNTVYLQMNSLKPEDTAVSYCAADGWLWSFTGDGWWFDYWGQGTQVTVSS” belongs “low polyreactivity”; to “QVQLVESGGGLVQAGGSLRLSCAASGSTFENNAMGWYRQAPGKERELVASSTNYADSVKGRFTISRDNAKNTVYLQMNSLKPEDTAVYYCNLDTNSSYEFNSWGQGTQVTVSS”, “low polyreactivity”.
As for “QVQIVESGGGIVQAGGSLRLSSAASGSTFSFYVMGWYRHAPGKEREWVAAISWSSVGTYYADSVKGRFTISRDNAKNTVYLQMNSLKPDDTAVYYCAAERYRRVAKHGYWGQGTQVTVSS”, the “polyreactivity (PSR sort gate)” value is “high polyreactivity”.
In the case of “QVQLVESGGGLVQAGGSLRLSCAASGSIFFPYAMGWYRQAPGKERELVAAISYSGTSTYYADSVKGRFTISRDNAKNTVYLQMNSLKPEDTAVYYCAAYSRYYASYDYWGQGTQVTVSS” it was “high polyreactivity”.
“QVQLVESGGGLVQAGGSLRLSCAASGRIFSIYGMGWSRQAPGKEREFVASITYSGGSTYYADSVKGRFTISRDNAKNTVYLQMNSLQPEDTAVYYCAKYVFSAYDYWGQGTLVTVSS”: the “polyreactivity (PSR sort gate)” value is reported as “low polyreactivity”.
To “QVQHVESGGGLVQAGGSLRLSCAASGRIFALYAMGWYRQAPGKERELVAAITSGSTYYADSVKGRFTISRDNAKNTVYLQMNSLKPEDTAVYYCAADLSYWRGGHSRNYWGQGTQVTVSS” belongs “low polyreactivity”.
To “QVHLEESGGGLVQAGGSLRLSCAASGIIFHFNDRGWYRQATGKERELVAAITSGGSTNYADSVKGRFTISRDNAKNTVYLQMNSLKPEDTAVYYCAARRCLRLFAYRHGYWGQGTQVTVSS” belongs “low polyreactivity”.
“QVQLVESGGGLVQAGGSLRLSCAASGSIFYPYAMGWYRQANGKERELDAAITWRGGRTYYADSVKGRFTISRDNAKNTVYLQMNSLKPEDTAVYYCAAGWLTRSYEYDYWGQGTQVTVSS”: the “polyreactivity (PSR sort gate)” value is recorded as “high polyreactivity”.
To “QLQLVESGGGLVQAGGSLRLSCAASGLTYEGYAMGWYRQAPGKERELVAAITGSGSTTYYADSVKGRFTISRDNAKNTVYLQMNSLKPEDSAVYYCAADVSYKLYWGQGTQVTVSS” belongs “low polyreactivity”; to “QVQLVESGGGLVQAGGSLRLSCADSGFTFRTYAMGWYRQAPGKEREFVAAITTYGGSTYYADSVKGRFTISRDNAKYTVYLQMNTLKPEDTAVYYCATRGRLRNYDYWGQGTQVTVSS”, “high polyreactivity”; to “QVQLVESGGGLVQAGGSLRLSCAASGSIFIPYAMGWYRQAPGKETELVAAISSSGSSYYADSVKGRFTISRDNAKNTVYLQMNSLKPEDTAVYYCAAERHYSYSSYDYWGQGTQVTVSS”, “low polyreactivity”.
In the case of “QVQLVESGGGLVQAGGSLRLSCAASGRTFTYNTMGWYRQAPGKERELVAAISSRGGRTYYADSVKGRFTISRDNAKNTVYLQMHSLKAEDTAVYYCAVYGYYSLSHWDYDYWAQGTQVTVSS” it was “high polyreactivity”.
In the case of “QVQLVESGGGFVQAGGSLRLSCAASGLTFVANAMGWYRQAPGTESEMVAGITQTGGSTYYADSVKGRFTISRDNAKNTVYLQMISLKPEDTAVYYCAATYRRLRYGKLYYYWGQGTQVTVSS” it was “high polyreactivity”; in that of “QVQLVESGGGLVQAGGSLRLSCAASGFTFHYYAMGWYRQAPGKEWELVAAITKSGGRTSYADSVKGRFTISRDNAKNTVYLQMNSLKPEDTAVYYCAAARYRARIGNDYWGQGTQVTVSS”, “low polyreactivity”; in that of “QVQLVESGGRLLQAGGSLRLSCAASGSIFVGYAMGWYRQAPGKEWELVAAISASGGRTYYADSVKGRFTISRDNAKTTVYLQMNSLKPEDTAVYYCATDDYWGRGTQVTVSS”, “high polyreactivity”.
For the sequence “QVQLLESGGGLVQAGGSLRLSCAASGSTFTNYAMGWYRQAPGKERELVAAITSGGSTYYADSVKGRCTISRDNAKNTVYLQMNSLKPEDTAVYYCNAVYFSEYDSWGQGTLVTVSS”, the “polyreactivity (PSR sort gate)” value is given as “low polyreactivity”.
In the case of “QVQLQESGGGLVQAVCSRRLSCAASGSFSSRDAMGWYRQAPGTEREFVATIAVGGNTNYADSAKGRFTISRDNAKITVYLQMNSPKPEDTAVYYRAAVIDFDIFTYWGQGTQVTVRS” it was “high polyreactivity”; in that of “QVQLVESGGGLVQAGGSLRLSCAASGFIFQPNAMGWYRQAPGKERELVAVITWSGGSTYYADSVKGRFTISRDNAKNTVYLQMNSLKPEDTAVYYCAVDGAYDQKPTDLKGYYYWGQGTQVTVSS”, “low polyreactivity”; in that of “QVQLVESGGRLVQAGGSLRLSCAPSGFIFRFNAMGWYRQPPGKVSELVARIDWSGGSTYYADSVKGRFTISRENAKYTVYFQMNSLKPEDTAVYYCAAERYFEYSECDYWGQGTQVTVSS”, “low polyreactivity”.
In the case of “QVQLVESGGGLVQAGGSLRLSCAASGITFRWYAMGWSRQAPGKERELVAAIDGGGSTYYADSVKGRFTISRDNAKNTVYLQMNSMKPEDTAVYYCAADYGRRYHTPYGWDYYYWGQGTQVTVSS”, the “polyreactivity (PSR sort gate)” value is “high polyreactivity”.
To “QVQLVESGGGLVQAGGSLRLSCAASGITFQRYAMGWYRQAPGKERELVAAITRGGSTNYADSVKGRFTISRDNAKNTVYLQMNSLKPEDTAVYYCAAGARYGYGYWGQGTQVTVSS” belongs “high polyreactivity”; to “QVQLVESGGGLVQAGGSLPLRCAASGLILEYYAMGWYRQAPGKERELVAAITRGGSTYYADSVKWRFTISRDNAKNTVYLQMNSLKPEDTAVYYCAADRYYYEYDYWGQGTQVNVSS”, “low polyreactivity”; to “QVQLVESGGGLVQAGGSLRLSCAASGRTFRENAMGWYRQAPGKERELVAAIRRSGGRTYYADSVKGRFTISRDNAKNTVYLQMNSLKPEDTAVYYCNAVADGYAFRRPYVTYYYWGQGTQVTVSS”, “low polyreactivity”.
In the case of “QVQLVESGGGLVQAGGSLRLSCAASGSTFVPYAMGWYRQAPGKERELVASISWRGGSTSYADSVKGRFTISRDNAKNTVYLQMNSLKPEDTAVYYCAARPRYRYKQDYYYWGQGTQVTVSS” it was “high polyreactivity”.
For “QVQLVESGGGLVQAGGSLRLSCAASGLTFKWYAMGWYRQAPGKERELVAASSRDGSTYYADSVKGRFTLSRDNAKNTVYLQMTSLKPEDTAVDYCAADIWPSSLLADEYDYWGQGTQVTVSS”, the “polyreactivity (PSR sort gate)” value is recorded as “high polyreactivity”.
Take “QVQLVESGGGLVQAGGSLRLSCAASGIIFAYNAMGWYRQAPGKERELVATITDSGGSTSYADSVKGRFTISRDNAKNTVYLQMNSLKPEDTAVYYCAVLPVYWYWRNYVYLSGYDYWGQGTQVTVSS”: the “polyreactivity (PSR sort gate)” value was “low polyreactivity”.
In the case of “QVQLVESGGGLVQAGGSLSLSCAASGLTFPKYAMGWYRQAPGKERELVDRISYSGASTYYADSVKGRFTISRDNAKNTVYLQMNSLKPEDTAVYYCAARIYRVYYVDFAPYYYWGQGTQVTVSS” it was “high polyreactivity”; in that of “QVQLVESGGGLVQAGGSLRLSCAASGRTFFSNAMGWYRQAPGKERELVAVIDSGGSTYYADSVKGRFTISRDNAKNTVYLQMNSLKPEDTAVYYCAADTGTAPSEDYLGQGTQVTVSS”, “low polyreactivity”.
On to “QVQLVESGGGLVQAGGSLRLSCAASGRTFRQYAMGWYRQAPGKERELVAAISSSGGRTYYADSVKGRFTISRDNAKNTVYLQMNSLKPEDTAVYYCNAARYSYCFDSWGQGTQVTVSS”, for which the “polyreactivity (PSR sort gate)” value is “high polyreactivity”.
With “QVQHVESVGGLVQAGGSLRLSCAASGLIFLYNAMGWYRQAPGKVRELVAAITSSGGSTYYADSVKGRLTISRDYAKNTVYLQMNSLKPEDTAVYYCANRYQSYYYSHWGYRYYWGQGTQVTVSS”, the “polyreactivity (PSR sort gate)” value is “high polyreactivity”.
In the case of “QVQLVESGGGLVQAGGSLRLSCAASGYIFKVNSMGWYRPAPGKERELDADISSNSGSTRYADSVKARFTISRDNAKNTVYLQMNSLKQDDTAVYYCAADGRYWVKPGSPWDRSRYDYWGQGTQVTVSS” it was “low polyreactivity”; in that of “QVQHVESGGALVQAGGSLRLSCADSGRTFIFYAMGWYRQAPGKETELVASTSSGGSTNYADSVKGRFTISRDNAKNTVYLQMNILKPEDTAVYYCATRQYLYYSRGYGYWGQGTKVTVSS”, “low polyreactivity”; in that of “QVQLVESGGGLVQAGGSLRLSCAASGYTFRYNAMGWYRQAPGKERELVAAISSSGGRTYYADSVKGRFTISRDYAKNTVYLQMNSLKPEDTAVYYCAADSSVKYWRYQAAYDYWGQGTQVTVSS”, “high polyreactivity”.
On to “QVQLVESGGGLVQAGGSLRLSCAASGSTFWPYTMGWYSQAPGKERELVAAISLSGGSTYYADSVKGRFTISRDIAKNTVYLQMNSLKPEDTAVYYCAAEGGYQNWHYLYDYWGQGTQVTVSS”, for which the “polyreactivity (PSR sort gate)” value was “low polyreactivity”.
To “QVQLVESGGGLVQAGGSLRLSCAASGFTFYKNTMGWYRQAPGKERELVAAISYRGGTYYADSVKGRFTISRDNAKNTVYLQMNSLKPQDTAVYYCNARYRGKYSSYGYWGQGTQVTVSS” belongs “high polyreactivity”; to “QVQLVESGGGLVQAGGSLRLSCAASGSTFVWYAMGWYRQAPGKEREFVAAITSDGGSTYYADSVKGRFTISRDNAKNTVYLQLNSLKPEDTAVYYCAADYYSLASGWYYYWGQGTQVTVSS”, “high polyreactivity”.
In the case of “QVQLVESGGGLVQAGGSLRLSCAASGSTILYYGMGWYRQAPGKERELVATITWRGGRTYYADSVKGRFTISRDNAKNTVYLQMNSLKTEDTAVYYCARVRLTTYGYYSWGQGTQVTVSS” it was “high polyreactivity”.
To “QVQLVESGGGLVQAGGSLRLSCAASGITFVHYVMGWYRQAPGKERELVAVITKGGARTSYADSVKGRFTISRDNAKNTVYLQMNSLKPEDTAVYYCAAREVYPLFTKYYYWGQGTQVTVSS” belongs “high polyreactivity”.

The record behind these values is the nanobody polyreactivity screen of Harvey et al. (2022).
